Source: patent publication US20120207741A1

Target: protein of the maize/soybean meal (SBM) substrate (6:4)

## protease derived from Nocardiopsis sp. NRRL 18262 (SEQ ID NO: 1) (enzyme)
  % dig. CP (digested protein, peptides of 1500 Dalton or below, gel filtration HPLC) in the in vitro pancreatic insufficiency digestion model (% dig. CP of total protein): 49.9
